Our source for the cell survival in DHFR selection media lacking glycine, hypoxanthine and thymidine (-GHT) values is patent publication US7691605.

For this test, the target named is Lz-linker-DHFR 106-187 (yeast) (UniProt P03069). The test can be described thus: cell-based or functional assay.

On to “Lz-linker-DHFR 1-105 (from UniProt P03069 253-274)”, for which the cell survival in DHFR selection media lacking glycine, hypoxanthine and thymidine (-GHT) was less than 90 % viability.
